Test results as given in paper PMC4109681 (Molecular cell, 2013).

B1: ^15N-Ubc7p (from pET3a-GB1-His6-Thrombin-Ubc7p) (enzyme, Saccharomyces cerevisiae, UniProt Q02159 1-165, looked up)
chain: MSKTAQKRLLKELQQLIKDSPPGIVAGPKSENNIFIWDCLIQGPPDTPYADGVFNAKLEFPKDYPLSPPKLTFTPSILHPNIYPNGEVCISILHSPGDDPNMYELAEERWSPVQSVEKILLSVMSMLSEPNIESGANIDACILWRDNRPEFERQVKLSILKSLGF
modifications: 15N-labelled
B2: Ubc7p:U7BR complex (for NMR titration) (complex, Saccharomyces cerevisiae)
chain 1: MSKTAQKRLLKELQQLIKDSPPGIVAGPKSENNIFIWDCLIQGPPDTPYADGVFNAKLEFPKDYPLSPPKLTFTPSILHPNIYPNGEVCISILHSPGDDPNMYELAEERWSPVQSVEKILLSVMSMLSEPNIESGANIDACILWRDNRPEFERQVKLSILKSLGF
chain 2: LLDKFHVDLNEDMSNLSFKDLDIEERKRLLVWQARKNLETKLQSDKDLQSLLT
modifications: 15N-labelled

Tests used:
[1] = target: GST-Cue1p^151-203 U7BR^m4 (Saccharomyces cerevisiae) (UniProt P38428); test: pull-down
[2] = target: T1, purified Hrd1p^321-551, containing its RING finger domain (Saccharomyces cerevisiae, UniProt Q08109 321-551); test: NMR titration
T1 sequence (looked up): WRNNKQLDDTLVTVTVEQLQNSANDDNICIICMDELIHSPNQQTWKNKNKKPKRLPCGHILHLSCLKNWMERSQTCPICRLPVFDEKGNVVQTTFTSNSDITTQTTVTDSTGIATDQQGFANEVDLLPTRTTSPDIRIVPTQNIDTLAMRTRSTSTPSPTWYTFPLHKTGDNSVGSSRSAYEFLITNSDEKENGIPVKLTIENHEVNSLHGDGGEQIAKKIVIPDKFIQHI

[3] = target: B1; test: NMR titration
[4] = target: B2; test: NMR titration

In the case of “in vitro transcribed and translated ^35S-labeled Ubc7p (from UniProt Q02159 1-165) (enzyme)”, the loss of binding against wild-type [1] is reported as 40%.

Molecule B1 has a Kd [2] of 107 µM.

B2 gave a Kd [2] of 13.4 µM.

B3: purified Doa10p^1-112 RING fragment (domain or fragment, Saccharomyces cerevisiae, UniProt P40318 1-112, looked up)
chain: MDVDSDVNVSRLRDELHKVANEETDTATFNDDAPSGATCRICRGEATEDNPLFHPCKCRGSIKYMHESCLLEWVASKNIDISKPGADVKCDICHYPIQFKTIYAENMPEKIP
B3: binds [3]; binds [4].
